Earlier results on one substance are cited in PMC3036779.

The series concerns the target GABARAP (Homo sapiens) (UniProt O95166).
Sequence of UniProt O95166 (O95166 1-116): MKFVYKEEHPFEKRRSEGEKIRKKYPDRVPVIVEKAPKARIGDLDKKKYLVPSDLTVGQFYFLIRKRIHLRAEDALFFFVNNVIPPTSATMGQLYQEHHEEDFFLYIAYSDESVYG

As for Nix (from UniProt O60238), the Kd is 100 µM.
